Where two headings read alike, the source gives them in different places. Starred links: 1 amine or outer side, 2 acyl side, 3 side chain; linkers in the order of their positions; H or OH if unused. Non-standard residues stand in square brackets, D forms with d. Residues, ends and D or L forms follow the SMILES beside them. ξ: configuration not given here. *: point of attachment. GluureaLys(ε-3-ClBenzyl) = O=C(O)CC[C@H](NC(=O)N[C@@H](CCCCN(Cc1cccc(Cl)c1)*)C(=O)O)C(=O)O; Dolaproine = CO[C@@H]([C@@H]1CCCN1)[C@@H](C)C(=O)O; Dil = CC[C@H](C)[C@H](NC)[C@@H](CC(=O)O)OC; X1 = O=C(CCCc1cn(CCCN[*:1])nn1)[*:2]; PABC = O=C(OCc1ccc(N[*:1])cc1)[*:2]; X2 = C[C@@H](N*)[C@@H](O)c1ccccc1; Cit = NC(=O)NCCC[C@H](N)C(=O)O; Suc = O=C(CCC(=O)[*:2])[*:1]; NMeV = CN[C@H](C(=O)O)C(C)C; ξV = CC(C)C(N)C(=O)O; Ahx = NCCCCCC(=O)O
Tests used:
[1] = Chronic toxicity study, intravenous once every 3 weeks, rabbits; assay type: in vivo
Excerpt: Chronic toxicity study of Conjugate (1) product on Rats and rabbits.
• 1. Conjugate (I). • 2. Solubilizer Pluronic F127—in the amount, five-fold greater than the conjugate amount by weight. • 3. Diluent—Haemodes infusion solution. • 4. Dimethyl sulfoxide—in the amount of 5% of the prepared volume.
A 1 00 white ° inbred mature male rats about 2 months old with a body weight of 190-210 g and 60 sexually mature male rabbits of the Soviet Chinchilla breed about 2 months old with a body weight of […] were involved in the experiment.
The study design determined the intravenous administration of the test drugs once every 3 weeks for 3 months (a total of 4 injections) for the experiment of chronic toxicity determination. The local irritant effect of the products within intravenous administration will be studied together with the chronic toxicity study.
Each animal received the intravenous injection of the test drug or the reference drug in a volume not exceeding the acceptable volume for a single injection of 2 mL for rats and 20 mL for rabbits. The products were replaced with a Pluronic solution with DMSO in Haemodes in the control group of animals. The duration of observation for laboratory animals was 4 weeks (intermediate stage).
Apparent signs of intoxication were evaluated daily. During the study, integral indicators of animal health were recorded (see Tables 15. 16, 17).

[2] = Pharmacokinetics in plasma of rabbits after a single injection; assay type: in vivo; conditions: male, Soviet Chinchilla, rabbit, plasma; for level at 0.5 h: 0.50 hour; for level at 1.5 h: 1.50 hour
Excerpt: The pharmacokinetics study for the Conjugate (I) product in plasma of rabbits and rats after a single injection.
The leporids and rodents are the standard targets for preclinical studies of potential drug products as well as determining the pharmacokinetic parameters. The rabbits and rats are recommended as test systems to study pharmacokinetic properties of pharmaceutical products by the regulatory documents (FIG. 7, FIG. 8).
[…] The pharmacokinetic data, determined from this number of test animals, are sufficient to obtain the primary quantitative characteristics of test product distribution and elimination and the calculation of descriptive statistics parameters.
• 1. Conjugate (1) • 2. Solubilizer Pluronic F127—in the amount, five-fold greater than the conjugate amount by weight. • 3, Diluent—Haemodes infusion solution. • Dimethyl sulfoxide—in the amount of 5% of the prepared volume. • Rabbit experiment (see Tables 5, 6), • Rat experiment (see Tables 7, 8).

[3] = male rabbits, group 7, 81 μg/kg intravenously 1 time in 3 weeks
[4] = male rabbits, group 8, 102 μg/kg intravenously 1 time in 3 weeks
[5] = rabbits N=6, read-out: Concentration in blood plasma, Geometr. mean
[6] = rabbits N=6, read-out: Concentration in blood plasma, Mean value
[7] = rabbits N=6, read-out: Concentration in blood plasma, Median

CC[C@H](C)[C@@H]([C@@H](CC(=O)N1CCC[C@H]1[C@H](OC)[C@@H](C)C(=O)N[C@H](C)[C@@H](O)c1ccccc1)OC)N(C)C(=O)[C@@H](NC(=O)[C@H](C(C)C)N(C)C(=O)OCc1ccc(NC(=O)[C@H](CCCNC(N)=O)NC(=O)C(NC(=O)CCCc2cn(CCCNC(=O)[C@H](Cc3ccc(O)cc3)NC(=O)[C@H](Cc3ccccc3)NC(=O)CCC(=O)NCCCCCC(=O)N(CCCC[C@H](NC(=O)N[C@@H](CCC(=O)O)C(=O)O)C(=O)O)Cc3cccc(Cl)c3)nn2)C(C)C)cc1)C(C)C (stereo partly drawn) [Conjugate (I)] ({GluureaLys(ε-3-ClBenzyl)-Ahx-Suc}-FY[X1][ξV][Cit][PABC][NMeV]V[Dil][Dolaproine]-X2)
Necropsy [1, 3]: None
Signs of intoxication [1, 3]: No signs of intoxication
Necropsy [1, 4]: None
Signs of intoxication [1, 4]: No signs of intoxication
Necropsy ([1]; male rabbits, group 9, 122 μg/kg intravenously 1 time in 3 weeks): None
Signs of intoxication: the intake of food and water ([1]; male rabbits, group 9, 122 μg/kg, after administration): decreased.
Main observed toxic effect ([1]; rabbits, chronic): decreased body weight gain
Chronic toxicity (overall) ([1]; rabbits, i.v. once every 3 weeks, intermediate stage 4 weeks): moderate toxicity
AUC0-t ([2]; intravenous, 0.81 mg/kg, rabbits N=6, read-out: AUC0-t, Geometr. mean): 30200 ng·h/mL
AUC0-t ([2]; intravenous, 0.81 mg/kg, rabbits N=6, read-out: AUC0-t, Mean value): 30700 ng·h/mL
AUC0-t ([2]; intravenous, 0.81 mg/kg, rabbits N=6, read-out: AUC0-t, Median): 30200 ng·h/mL
AUC(0-inf) ([2]; intravenous, 0.81 mg/kg, rabbits N=6, read-out: AUC0-∞, Geometr. mean): 34700 ng·h/mL
AUC(0-inf) ([2]; intravenous, 0.81 mg/kg, rabbits N=6, read-out: AUC0-∞, Mean value): 35100 ng·h/mL
AUC(0-inf) ([2]; intravenous, 0.81 mg/kg, rabbits N=6, read-out: AUC0-∞, Median): 36100 ng·h/mL
MRT last ([2]; intravenous, 0.81 mg/kg, rabbits N=6, read-out: MRT0-t, Geometr. mean): 3.43 h
MRT last ([2]; intravenous, 0.81 mg/kg, rabbits N=6, read-out: MRT0-t, Mean value): 3.44 h
MRT last ([2]; intravenous, 0.81 mg/kg, rabbits N=6, read-out: MRT0-t, Median): 3.38 h
half-life ([2]; intravenous, 0.81 mg/kg, rabbits N=6, read-out: T1/2, Geometr. mean (converted)): 4.33 h
half-life ([2]; intravenous, 0.81 mg/kg, rabbits N=6, read-out: T1/2, Mean value (converted)): 4.58 h
half-life ([2]; intravenous, 0.81 mg/kg, rabbits N=6, read-out: T1/2, Median (converted)): 4.59 h
Vd ([2]; intravenous, 0.81 mg/kg, rabbits N=6, read-out: Vd, Geometr. mean): 0.146 L/kg
Vd ([2]; intravenous, 0.81 mg/kg, rabbits N=6, read-out: Vd, Mean value): 0.158 L/kg
Vd ([2]; intravenous, 0.81 mg/kg, rabbits N=6, read-out: Vd, Median): 0.144 L/kg
AUC0-t ([2]; intravenous, 0.81 mg/kg, rabbits, individual animals, read-out: AUC0-t): 31400 ng·h/mL
AUC(0-inf) ([2]; intravenous, 0.81 mg/kg, rabbits, individual animals, read-out: AUC0-∞): 35300 ng·h/mL
C0 ([2]; intravenous, 0.81 mg/kg, rabbits, individual animals, read-out: C0): 10700 ng/mL
MRT last ([2]; intravenous, 0.81 mg/kg, rabbits, individual animals, read-out: MRT0-t): 3.12 h
level at 0.08 h [2, 5]: 10300 ng/mL
level at 0.08 h [2, 6]: 10500 ng/mL
level at 0.08 h [2, 7]: 9600 ng/mL
level at 0.25 h [2, 5]: 9410 ng/mL
level at 0.25 h [2, 6]: 9670 ng/mL
level at 0.25 h [2, 7]: 9840 ng/mL
level at 0.5 h [2, 5]: 7410 ng/mL
level at 0.5 h [2, 6]: 7580 ng/mL
level at 0.5 h [2, 7]: 7100 ng/mL
level at 1 h [2, 5]: 6040 ng/mL
level at 1 h [2, 6]: 6160 ng/mL
level at 1 h [2, 7]: 5890 ng/mL
level at 1.5 h [2, 6]: 5120 ng/mL
level at 1.5 h [2, 7]: 4970 ng/mL
level at 2 h [2, 5]: 4570 ng/mL
level at 2 h [2, 6]: 4630 ng/mL
level at 2 h [2, 7]: 4510 ng/mL
level at 3 h [2, 5]: 3440 ng/mL
level at 3 h [2, 6]: 3520 ng/mL
level at 3 h [2, 7]: 3650 ng/mL
level at 4 h ([2]; rabbits N=6, 4.00 hour, read-out: Concentration in blood plasma, Geometr. mean): 2430 ng/mL
